Reference: a protein production outcome set (Wang et al. 2014)

Test: label from the status in PepcDB records
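Further: failed if final PepcDB status was selected cloned or expressed and not failed if soluble or beyond.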

Row | Sequence | protein production
1 | MPVLLSRLASRTNPSLANRCAMDTWLRSAIDYISSWIEFQQTTIQQPGVIVAFAHRGEVVAEHAFGVANLDTGEKLTPRHRCRIASHSKSFTSAGIMKLREQRKLRLDDSVGQYVGGLHPRVAETTIAQLLSHSAGLTRDGADSGQFIDRRPYLNAEELLAELKLPTAIEPGTRFKYSNHGFGLLGLVIEAVTKEPYTAWIKREIIEPAGLRETEPDAPLPKGAAFARGHTRKVPLGERCVIPGDNPTHAMASATGFAATAADTARFFAQLAPNARKSVLSVASRREMTRHHWRIPQSFEAYYGLGIGAGKLDGWDWLGHGGHFQGYISRTCAIPACELAISIISNSIDGAAPFWMDGAMQILRTFKTRGAPDRRVRDWTGRWWTIWGATDLVPMGDRVLIANPQFNNPFMDAGEIEVTGRDTGRIAAAAGHSSHGEPVRRVRDARGKVSDIWLAGANVKPASVVAREIARQYPPRKRRPTP | failed
2 | MPVTEISEKLSVSPQPSIEDIQSLRDQGFKTLINNRPDNEDASQPNTRAERQQAKQCDLSYAFIPVTADTITEADVRAFQRAVDESDGPVLAHCQTGKRALNLYLIGEVLDGSMSVDKVVEFGRSRGFDTSAAAAWLKQHAARRPQVKGFFDKRTWSVQYVISDPLTRKCAIVDPVLDFDEKSGATATINADAILDYIRDNGLTVEWILDTHPHADHFSAAHYLQEKTGARTAIGERVVDVQKLWKGIYNWPELATDGSQWDRLFAHGETFEVGSIDAKVLFSPGHTLASITYVIGDAAFVHDTLFMPDSGTARADFPGGDARVLWKSIQEILALPAETRIFTGHDYQPEGRAPRWESTVAEQKKSNPHLAGVNEQEFVALRTTRDKTLPMPKLILHALQVNIRGGRLPEPEANGKRYLKFPLDALQGAAWE | failed
3 | MPYDWKRTETRQELRLWPHNSLPPRGAAGFVLLVFALGLLPLIAVLGSPLLWGLLPFLLLAVAGLWLAIEANYRQRRILEVLTLDPERAHLVRHNPRGAVQEWDCNRYWARATLHAHGGPVPHYVTLQGCGREVEIGAFLSEDERIALYDDLREMLSK | failed
4 | MPYITIEGGALTREQKSELIRKVTEVASEVMQIPMEFFLCTVKELPDENIGIGGRTIDLIKLEHHHHHH | not failed
5 | MQAETNSAPLAAALYMIAAMSIIGVIDNYVIRLAESIGLWQFHFMRSLMMLPLVGLMSLMGLGGLFPRRKGWVLLRSLLLTVAMLFYFSALAFMPIAQALAGLFTSPIFVLLVTAFGLRQRIGPWRILAVLMGFAGILFVLQPDPGAFDATVLIPVAGGFFYALGAVVTRRHCAGESTAALLGAMVTALGLTGLGGLIWLALFPATPLPGPDGFVARGWVWPMAEAMPWVALQAVGSATAVFMLIRAYQLGEPSYVSVFEFSVMIFGPLFAWVVLGVGLGPWQMLGIGLIVLAGAIIALRSG | failed
6 | MQAIRSILVVIEPDQLEGLALKRAQLIAGVTQSHLHLLVCEKRRDHSAALNDLAQELREEGYSVSTNQAWKDSLHQTIIAEQQAEGCGLIIKQHFPDNPLKKAILTPDDWKLLRFAPCPVLMTKTARPWTGGKILAAVDVGNNDGEHRSLHAGIISHAYDIAGLAKATLHVISAHPSPMLSSADPTFQLSETIEARYREACRTFQAEYGFSDEQLHIEEGPADVLIPRTAQKLDAVVTVIGTVARTGLSGALIGNTAEVVLDTLESDVLVLKPDDIIAHLEELASKE | not failed
7 | MQANRSQLHSPPGTGSSEDASTPQCVHTRLTGEGSCPHSGDVHIQINSIPKECAENASSRNIRSGVHSCAHGCVHSRLRGHSHSEARLTDDTAAESGDHGSSSFSEFRYLFKWLQKSLPYILILSVKLVMQHITGISLGIGLLTTFMYANKSIVNQVFLRLNFFKSYFGPFELLGSILDCWNYRLHSEILFHGLKMPYFIGAFFHHAF | failed
8 | MQARDIMTTTVVSISPDVSVRHAVAMMLQNHVSGLPVVDDHGRVCGMVTEGDLLLRREVRYAPRPARAPELISEIDLERYIGSNGWCVADVMSQDVIVARPDSEVSDIAESLQVHRIKRLPIVEDERLVGIVSRRDILRVIAEAPTTILPRGDEAIRLAVRTRLRSDLGLTPQKVHVSVRNGQVTVDGQVESELKRRAIKVLVEGLGGIAGYKDGLLVSPAHIQD | failed
9 | MQAYVLHFIALVIMSLTGTTSGAFAQNGQSTEVSGPIEDRVPHRHQERPGERMPADYGTPRLLNLGAHTFPVSTSNQLAQQYMNQGLNLSYAFNHAEAGRAFREAARLDPALAMAYWGQALVLGPNINAPMEAKNEVSALELVRKAASLAAGVSDRERALIGALEKRYTGNSEDRKANDKAYANAMREVHRRFSGDQDIAMLFVESVMDTSPWGYWMRDDYPMEGTREIVAVTEGVLQGNPRHPGATHMYIHLMEPTNMPERAAQAADTLLTLMPDAGHLIHMPSHIYLRVGRYEDAIIANQRAIAADVRYLVRQHEHGFYAMAYFPHNIHFLGAAATADGQSELAIDSARKVASTIDDAVLKEMPMTGVFRVVPYWALTRFGKWDEMLQEPEPPSSNAFLKGGWHYARGLAFVAKRQLSEAEQELAALREIMKDDSLDGPLLSVNTARSVLRIGPAVLAGEIAAARGQFNSAIAHLEQAVRLEDSLAYTEPPEWQAPPRLTLGAILLEAGHPAEAETVYWEDLRRNRNNGWALYGLLQALRAQGKNERAALVEERFNKAWARADVKLGASRFGCVFSPMTMAGQSR | failed
10 | MQCRDHSTHLVSLPNSQGPAVPFTMRRPVRPPSVPMSRYRTAPLATTELPPGIPFIIGNELAERFSYYGMRAILVVFMTRYLVDAAGNPAPMQEGEAKGYFHLFVSLTYFTPFLGALLADGVLGKYRTIIALSLVYCLGHFALALDDTRTGLLLGQSLIALGAGGIKPCVSAHVGDQFGQSNRHLLSQIYGWFYLAINLGAFVSMLLIPWLLERHGASVAFAVPGLLMLIATLVFWAGRHRFVHIPPGGMRFIREAWSSEGRRGVGRLIGVFLFITMFWALFDQTGSSWVLQSQRMDRVLFGHAILPSQIQAANPLLIVLLTPFFHHLLYPALARLIPMTALNKIALGLSFTVLAFALAAWIQMRIDTGLKPSIGWQLLAYLLLTSAEVMVSITSLEFAYTQAPLTMKSFVMALYLGAVALGNLFTALVNFWIERSKTPWLDGAGYFWFFTGLMLATALGFFAYSRNYREELHLQTER | failed
11 | MQDFWHAASAQLESELTPQQFKTWIKPLTPLSFDEQACMLRIAAPNRFKLDWVKSQFSGRIQSLACDYWEMQVDVQFVLDPTAGQRQAAMQPALAPMPMQPLAAQTMQAQAVPREAPARPTMAPYRETPMATAAHAAADIDVPVMDAAEASTQSYRVPAPAAPAVMGGLSAPPAAPVDDTVHERSRLNPILTFDNLVTGKANQLARAAAVQVANNPGKSYNPLYLYGGVGLGKTHLIHAIGNFMLMENPRARIRYIHAEQYVSDVVKAYQRKAFDDFKRYYHSLDLLLIDDIQFFSGKNRTQEEFFYAFEALIANRAQVIITSDTYPKEITGIDDRLISRFDSGLTVAIEPPELEMRVAILMKKAQAENVTVPEEVAFFVAKHLRSNVRELEGALRKILAYSNFHGKEITIEVTREALKDLLTVQNRQISVENIQKTCADFYNIKVADMYSKKRPANIARPRQIAMYLAKELTQKSLPEIGELFGGRDHTTVLHAVRKIADERSKDAQLNHELHVLEQTLKG | failed
12 | MQDLNDIALFAAVVKHNGFSAAARDLNVPKSKLSKHVARLEEQLGVRLLERSTRKLRMTEVGRIFYEHAQGLLDGVAAAEAEIAAVRAEPTGVVRLACPIGFTPMLADILPAFHRRYPGVRLLITASNRRIDLIEERIDVALRARDQLDTDSQLIVRKFGEVRQRLAASPTLLARLGEITTDNLSQMPTLSMNEQHPNDVWRLVHATGGAIEIAHRPVVGCSDFLILERAAIEGMGIALLPDHICERAFRTGALVPVLPEWTSGNVMVHLVFPSRHGLLPATRALIDFLAENLIKALERCREVDPRPAASFEI | failed
